From US20190309072A1 (CYTOMX THERAPEUTICS, published 2019) come the findings set out here.

Experiment [1] has as its target T1, human ITGa3 on human-derived cell lines (human, UniProt P26006 33-1051).
T1 construct: whole, on cells; also called ITGa3 on H292 cells
T1 sequence (looked up): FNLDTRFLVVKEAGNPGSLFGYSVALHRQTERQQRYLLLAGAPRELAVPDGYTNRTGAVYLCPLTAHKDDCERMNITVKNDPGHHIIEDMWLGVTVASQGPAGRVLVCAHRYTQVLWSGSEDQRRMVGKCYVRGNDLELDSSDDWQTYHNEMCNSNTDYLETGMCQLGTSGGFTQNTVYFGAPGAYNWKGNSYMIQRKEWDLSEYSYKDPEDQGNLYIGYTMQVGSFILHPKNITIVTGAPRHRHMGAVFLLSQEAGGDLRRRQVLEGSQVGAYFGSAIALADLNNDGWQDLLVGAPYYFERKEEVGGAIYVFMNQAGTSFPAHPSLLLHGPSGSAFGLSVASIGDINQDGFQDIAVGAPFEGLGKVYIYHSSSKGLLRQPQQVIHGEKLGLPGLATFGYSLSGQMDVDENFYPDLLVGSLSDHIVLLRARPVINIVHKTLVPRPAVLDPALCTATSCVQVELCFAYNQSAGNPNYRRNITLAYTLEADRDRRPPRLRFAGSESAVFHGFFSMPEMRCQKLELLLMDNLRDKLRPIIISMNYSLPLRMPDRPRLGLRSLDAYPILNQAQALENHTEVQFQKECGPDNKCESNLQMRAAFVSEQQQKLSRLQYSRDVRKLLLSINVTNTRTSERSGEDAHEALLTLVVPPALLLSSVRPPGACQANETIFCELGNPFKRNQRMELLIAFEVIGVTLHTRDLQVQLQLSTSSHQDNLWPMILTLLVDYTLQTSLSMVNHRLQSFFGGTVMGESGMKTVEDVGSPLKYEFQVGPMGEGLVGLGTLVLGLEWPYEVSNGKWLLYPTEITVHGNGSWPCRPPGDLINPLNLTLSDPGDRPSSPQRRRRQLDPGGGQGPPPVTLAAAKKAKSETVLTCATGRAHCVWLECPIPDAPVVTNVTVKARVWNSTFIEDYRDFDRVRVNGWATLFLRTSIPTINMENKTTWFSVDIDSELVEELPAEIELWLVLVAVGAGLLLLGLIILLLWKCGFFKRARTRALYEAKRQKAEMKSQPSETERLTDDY
The experiment can be described thus: FACS on HT29 cells; apparent Kd from binding curve. As to the method: (§1) In this study, the binding of the antibodies of the present disclosure to the indicated cell lines were performed using a standard FACS labelling method.

For experiment [2], the target named is T1, human ITGa3 on human-derived cell lines. The experiment can be described thus: FACS on MDA MB231 cells; apparent Kd from binding curve. The procedure:
as §1

Experiment [3] has as its target T2, mouse ITGa3 on mouse-derived Renca renal carcinoma cells (mouse, UniProt Q62470 33-1053).
T2 construct: whole, on cells
T2 sequence (looked up): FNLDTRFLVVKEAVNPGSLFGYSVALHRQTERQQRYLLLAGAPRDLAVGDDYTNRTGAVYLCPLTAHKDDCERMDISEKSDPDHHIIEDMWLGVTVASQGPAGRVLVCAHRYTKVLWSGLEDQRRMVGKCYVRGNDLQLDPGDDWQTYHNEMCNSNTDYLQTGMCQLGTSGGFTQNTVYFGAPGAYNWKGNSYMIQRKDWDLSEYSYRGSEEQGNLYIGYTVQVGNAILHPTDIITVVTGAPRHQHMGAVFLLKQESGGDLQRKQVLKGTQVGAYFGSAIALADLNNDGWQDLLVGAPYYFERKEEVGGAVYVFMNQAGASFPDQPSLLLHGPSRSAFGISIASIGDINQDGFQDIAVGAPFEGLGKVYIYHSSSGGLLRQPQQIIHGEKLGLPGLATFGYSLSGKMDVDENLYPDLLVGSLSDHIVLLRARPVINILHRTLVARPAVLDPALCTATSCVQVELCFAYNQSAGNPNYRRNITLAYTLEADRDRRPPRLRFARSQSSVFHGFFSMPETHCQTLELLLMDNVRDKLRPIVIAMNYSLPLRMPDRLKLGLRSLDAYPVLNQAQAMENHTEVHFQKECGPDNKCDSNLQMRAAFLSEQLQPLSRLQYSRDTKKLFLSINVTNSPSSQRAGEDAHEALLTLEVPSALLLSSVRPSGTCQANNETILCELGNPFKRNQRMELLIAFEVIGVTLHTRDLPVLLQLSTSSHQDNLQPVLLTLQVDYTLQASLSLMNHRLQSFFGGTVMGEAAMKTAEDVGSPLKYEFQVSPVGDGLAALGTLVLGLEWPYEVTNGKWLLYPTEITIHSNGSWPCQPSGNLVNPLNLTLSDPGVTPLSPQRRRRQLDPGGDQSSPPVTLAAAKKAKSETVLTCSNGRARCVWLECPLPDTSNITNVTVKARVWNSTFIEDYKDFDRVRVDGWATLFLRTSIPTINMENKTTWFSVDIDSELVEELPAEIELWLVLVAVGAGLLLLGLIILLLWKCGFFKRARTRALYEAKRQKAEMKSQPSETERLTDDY
The experiment can be described thus: FACS on Renca cells; goat anti-human IgG Alexa Fluor 647 secondary.

Experiment [4] deals with T1, human ITGa3 on human-derived cell lines. The experiment can be described thus: FACS on MDA MB 231 cells (FIG. 17B); apparent Kd from binding curve. As to the method: In this study, the binding of the antibodies of the present disclosure to the indicated cell lines were performed using a standard FACS labelling method. Briefly, in FIG. 17A cells were labeled with the indicated antibodies of the present disclosure: anti-human ITGa3 antibody drug conjugate (anti-ITGa3 huVM2 Hc2/Lc1-spdb-DM4, “ITGa-DM4”) or an anti-human ITGa3 activatable antibody drug conjugate (anti-ITGA3 Hc2-570-2001-spdb-DM4, “ITGA3-570-2001-DM4”), where the anti-ITGa3 AADC was used with and without activation by a protease that recognized the substrate sequence. In FIG. 17B cells were labeled with the indicated antibodies of the present disclosure: anti-human ITGa3 antibody (anti-ITGa3 huVM2 Hc2T62G/Lc1 antibody, “ITGa3 Ab”) or an anti-human ITGa3 activatable antibody (anti-ITGA3 Hc2T62G-570-2001, “ITGA3-570-2001; anti-ITGA3 Hc2T62G-2331-3001, “ITGA3-2331-3001”) and their corresponding AADCs conjugated to vc-MMAD at the indicated concentrations and subsequently detected with an Alexa Fluor 647 labeled goat anti-human IgG secondary antibody.

The target is the same in experiment [5]. The experiment can be described thus: FACS on BxPC3 cells; apparent Kd from binding curve. As to the method: as §1
Experiment [6] shares this target. The experiment can be described thus: FACS on FaDu cells; apparent Kd from binding curve. The procedure: as §1
For experiment [7] the target is unchanged. The experiment can be described thus: FACS on FaDu cells; shift of the ActAb Kd against the ITGa3 Ab Kd. As to the method: as §1
Experiment [8] has the same target. The experiment can be described thus: FACS on HT29 cells; shift of the ActAb Kd against the ITGa3 Ab Kd. As to the method: as §1
Experiment [9] has the same target. The experiment can be described thus: FACS on BxPC3 cells; shift of the ActAb Kd against the ITGa3 Ab Kd. As to the method:
as §1

For experiment [10] the target is unchanged. The experiment can be described thus: FACS on MDA MB231 cells; shift of the ActAb Kd against the ITGa3 Ab Kd. The procedure: as §1
The target is the same in experiment [11]. The experiment can be described thus: FACS on H292 cells; goat anti-human IgG Alexa Fluor 647 secondary; used for comparison. The procedure: […], the binding of activatable anti-ITGa3 antibodies of the present disclosure comprising the VH of SEQ ID NO: 7, a VL selected from the VL of SEQ ID NO: 11 and the VL of SEQ ID NO: 12, with a masking moiety selected from the 570 masking moiety (SEQ ID NO: 22) and the 574 masking moiety (SEQ ID NO: 26), and the CM1 substrate comprising the sequence […] (SEQ ID NO: 232) to the H292 cell line was evaluated using a cell-binding FACS assay. The VM2 chimera (VH of SEQ ID NO: 1 and VL of SEQ ID NO: 2) was used for comparison. Using a standard labeling protocol for FACS, cells were labeled with anti-ITGa3 antibody or anti-ITGa3 activatable antibody of the present disclosure at the indicated concentrations, and the bound antibody was detected with a goat anti-human IgG Alexa Fluor 647 secondary antibody.

B1: anti-ITGa3 huVM2 Hc2T62G/Lc1 antibody (antibody, human IgG1, kappa)
heavy: not shown
light: DIQMTQSPSSLSASVGDRVTITCSASSSISSNYLHWYQQKPGKVPKLLIYRTSNLASGVPSRFSGSGSGTDYTLTISSLQPEDVATYYCQQGSSIPRFTSGGGTKVEIKRTVAAPSVFIFPPSDEQLKSGTASVVCLLNNFYPREAKVQWKVDNALQSGNSQESVTEQDSKDSTYSLSSTLTLSKADYEKHKVYACEVTHQGLSSPVTKSFNRGEC
notes: also called ITGa3 Ab; ITGA3-Ab
For B1, the Kd came out at 0.24 nM in experiment [1]; 0.91 nM in experiment [2]; 0.906 nM in experiment [4]; 0.77 nM in [5]; 0.32 nM in [6]. In experiment [3], the binding result is on record as “no binding”.

B2: anti-ITGa3 huVM2 Hc2T62G/Lc1 antibody conjugated to vc-MMAD (antibody, human IgG1, kappa)
heavy: not shown
light: B1 light
modifications: vc-MMAD conjugated to the antibody; chain and residues of attachment not stated
notes: Antibody drug conjugate of m29; also called ITGa3 Ab-MMAD; huVM2 Hc2T62G-MMAD ADC
As to B2, the Kd in experiment [4] was 1.08 nM.

B3: anti-ITGA3 Hc2T62G-570-2001 (antibody)
heavy: not shown
light: QGQSGQGECKTRQDFEMHDCVYGGGSSGGSISSGLLSGRSDNHGGGSDIQMTQSPSSLSASVGDRVTITCSASSSISSNYLHWYQQKPGKVPKLLIYRTSNLASGVPSRFSGSGSGTDYTLTISSLQPEDVATYYCQQGSSIPRFTSGGGTKVEIKRTVAAPSVFIFPPSDEQLKSGTASVVCLLNNFYPREAKVQWKVDNALQSGNSQESVTEQDSKDSTYSLSSTLTLSKADYEKHKVYACEVTHQGLSSPVTKSFNRGEC
notes: also called ITGa3-ActAb; ITGa3 ActAb
On to B3, for which the Kd stood at 6.03 nM in [1]; 7.42 nM in [2]; 18 nM in [4]; 7.39 nM in experiment [5]; 4.58 nM in experiment [6]. Further, the “Apparent Masking Efficiency” value in experiment [7] came out at 14 fold; in [8], 25 fold; in [9], 10 fold; in experiment [10], 8 fold.

B4: anti-ITGA3 Hc2T62G-570-2001 conjugated to vc-MMAD (antibody, human IgG1, kappa)
heavy: not shown
light: B3 light
modifications: vc-MMAD conjugated to the antibody; chain and residues of attachment not stated
notes: also called ITGa3 570-2001-MMAD; ITGa3-570-2001-MMAD
B4: the Kd in experiment [4] amounted to 17.5 nM.

B5: VM2 chimera (antibody, V domains shown)
VH: EVQLQESGAELVKPGTSVRLSCKASGYTFTEYIIHWVKQRSGQGLEWIGWFYPESGSVKYNETFKGRATLTADKSSSTVYMELSRLTSEDSAVYFCARHEERDYYGYYAMDYWGQGTSVTVSS
VL: DIVMTQTPTTLAASPGEKIIITCSASSSISSNYLHWYQQKPGFSPKLLIYRTSNLASGVPARFSGSGSGTSYSLTIGTMEAEDVATYYCQQGSSIPRFTSGSGTKLEIK
notes: Chimera of the mouse VM2 variable domains; also called VM2 chimera anti-ITGa3 antibody
For the molecule B5, the binding result in experiment [11] is “binds”.
